# From patent US9327008B2, “Cell-permeant peptide-based inhibitor of kinases” (Purdue Research Foundation, priority 2008, dated 2016)
# Non-standard residues stand in square brackets, D forms with d. No end group written: not given here.
# Legend:
# [1] = tested on: IL-6 expression induced by TNF-α in mesothelial cells (CRL-9444); assay: IL-6 ELISA, mesothelial cells induced with TNF-α; format: cell-based
# Experimental: A cell line of pleural mesothelial cells (CRL-9444) was purchased from American Type Culture Collection. Cells were maintained and seeded in Medium 199 with Earle's BSS and 0.75 mM L-glutamine (Mediatech, Inc., Manassas, Va.), 1.25 g/L sodium bicarbonate (Sigma, St. Louis, Mo.), 3.3 nM epidermal growth factor (MBL International, Woburn, Mass.), 40 nM hydrocortisone (Sigma), 870 nM insulin (MBL International), 20 mM HEPES (Sigma), trace elements mixture B (Mediatech, Inc.), 10% fetal bovine serum (FBS) (Hyclone, Waltham, Mass.) and 1% penicillin/streptomycin (Mediatech, Inc.). Prior to treating cells with therapeutic inhibitor peptides, cells were allowed to acclimate in serum-free media consisting of only Medium 199 with Earle's BSS. L-glutamine, sodium bicarbonate, HEPES, trace elements mixture B, and penicillin/streptomycin (concentrations and suppliers as above) for 24 hours prior to treatment with cytokines and/or inhibitor peptides. […]
# Standards (from 2 ng/ml to zero) and samples were prepared in diluent, immediately added to each well in triplicate, and incubated at room temperature for at least 2 hours on a plate shaker adjusted to 300 rpm. […] Hoeschst 33342 nuclear stain (Invitrogen) was used to quantify cell number on the basis of DNA quantity. […]
# Results are presented as means±standard deviation. […] Significant differences were analyzed with Tukey HSD post hoc comparisons. […]
# MK2 [2] = details: commercially available inhibitor; kinase not named at the place, used as inhibitor of MK2 (and PRAK); cited from earlier work
# [3] = tested on: IL-1β induced IL-6 expression in mesothelial cells (CRL-9444); assay: IL-6 ELISA, mesothelial cells induced with IL-1β; format: cell-based; details: IL-1β 1 ng/ml; Rottlerin 1 μM
# Experimental: A cell line of pleural mesothelial cells (CRL-9444) was purchased from American Type Culture Collection. Cells were maintained and seeded in Medium 199 with Earle's BSS and 0.75 mM L-glutamine (Mediatech, Inc., Manassas, Va.), 1.25 g/L sodium bicarbonate (Sigma, St. Louis, Mo.), 3.3 nM epidermal growth factor (MBL International, Woburn, Mass.), 40 nM hydrocortisone (Sigma), 870 nM insulin (MBL International), 20 mM HEPES (Sigma), trace elements mixture B (Mediatech, Inc.), 10% fetal bovine serum (FBS) (Hyclone, Waltham, Mass.) and 1% penicillin/streptomycin (Mediatech, Inc.). Prior to treating cells with therapeutic inhibitor peptides, cells were allowed to acclimate in serum-free media consisting of only Medium 199 with Earle's BSS. L-glutamine, sodium bicarbonate, HEPES, trace elements mixture B, and penicillin/streptomycin (concentrations and suppliers as above) for 24 hours prior to treatment with cytokines and/or inhibitor peptides. […] For all cell culture experiments, the cell-penetrating MK2 inhibitor peptide sequence [sequence] [SEQ ID NO: 11] was used.
# IL-6 analysis was performed with a IL-6 ELISA kit (PeproTech, Inc., Rocky Hill, N.J.). Briefly, the plate was prepared as follows. The capture antibody (antigen-affinity purified goat anti-hIL-6+2.5 mg D-mannitol) was diluted with phosphate buffered saline (PBS) to a concentration of 1 μg/ml and added to the each well of the plate. The plate was sealed and incubated at room temperature overnight. The wells then were aspirated to remove liquid, and washed 4 times using wash buffer (300 μl per well of 0.05% Tween-20 in PBS). After the last wash, the plate was inverted to remove residual buffer, and blotted on a paper towel. Block buffer (300 μl per well of 1% BSA in PBS) was added, the plate incubated for at least 1 hour at room temperature, aspirated and washed 4 times.
# Standards (from 2 ng/ml to zero) and samples were prepared in diluent, immediately added to each well in triplicate, and incubated at room temperature for at least 2 hours on a plate shaker adjusted to 300 rpm. […] Following the incubation, the plate was aspirated, washed 4 times, avidin-horse radish peroxidase (HRP) conjugate added ((5.5 μl:10994.5 μl diluent) (100 μl) to each well, incubated for 30 minutes at room temperature on a plate shaker adjusted to 300 rpm, aspirated, and washed 4 times. To each well then was added ABTS Liquid Substrate Solution (Sigma) (100 μl). The plate was incubated at room temperature for color development on a plate shaker adjusted to 300 rpm. Absorbance was measured at 405 nm and 650 nm (650 nm was the wavelength correction subtracted from each 405 nm measurement) using a Spectramax M5 Microplate Reader (Molecular Devices) every 5 minutes for 50 minutes. Hoeschst 33342 nuclear stain (Invitrogen) was used to quantify cell number on the basis of DNA quantity. All results were run in triplicate and normalized to cell number.
# One-way ANOVA analyses were used to determine statistically significant increases or decreases in parameters of interest. Significant differences were analyzed with Tukey HSD post hoc comparisons. A significance level of α=0.05 was used in cytokine analyses.
# Mesothelial cells were incubated with IL-1β (1 ng/ml) (to induce IL-6 expression) and/or different concentrations of therapeutic inhibitor peptide. The commercially available protein kinase inhibitor Rottlerin was introduced as an inhibitor of both MK2 and PRAK.
# MK2 [4] = molecular target: MK2 (Homo sapiens, UniProt P49137); assay: Omnia fluorescence-based kinase activity assay for MAPKAP-K2 (reaction velocity); format: biochemical; set-up: purchased Invitrogen; details: for MK2 inhibition (in words): PTD peptide alone, 12.5-100 μM
# MK2 (Homo sapiens, UniProt P49137), sequence (P49137 whole entry): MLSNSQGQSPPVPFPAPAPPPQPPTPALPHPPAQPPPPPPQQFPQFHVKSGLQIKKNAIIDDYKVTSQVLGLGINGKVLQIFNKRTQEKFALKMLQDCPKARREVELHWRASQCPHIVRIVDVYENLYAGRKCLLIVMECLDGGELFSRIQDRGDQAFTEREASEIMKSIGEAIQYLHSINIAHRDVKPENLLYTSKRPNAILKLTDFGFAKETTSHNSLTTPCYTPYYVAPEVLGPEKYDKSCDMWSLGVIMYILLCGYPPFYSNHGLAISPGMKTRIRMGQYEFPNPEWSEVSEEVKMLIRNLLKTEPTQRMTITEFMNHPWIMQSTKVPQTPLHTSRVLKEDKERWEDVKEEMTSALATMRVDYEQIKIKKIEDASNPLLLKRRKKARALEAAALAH
# Experimental: The Omnia® Kinase Assay for MAPKAP-K2 kit (Invitrogen, Carlsbad, Calif.), was used to determine the reaction velocity for MK2 in the presence and absence of each of the peptides listed in Table 1. The kit contains a proprietary reaction buffer to which the following were added (final concentrations are given): 1 mM ATP, 0.2 mM DTT, 10 μM MAPKAP-K2 Sox-modified peptide substrate, 5 ng MK2, and the inhibitor peptide of interest (final volume of 50 μL). Human MK2 was purchased from Invitrogen. The reactions were performed at 30° C. in the wells of a low-protein-binding 96-well plate provided with the kit, and fluorescence readings (excitation=360 nm, emission=485 nm) were taken every 30 seconds for 20 minutes using a SpectraMax M5 Spectrophotometer (Molecular Devices). Reaction velocity was determined for each reaction well from the slope of a plot of relative fluorescence units versus time. Each inhibitor peptide was tested at least at four concentrations, 12.5, 25, 50 and […], in triplicate.
# In Table 1, “a” represents that the results shown are for 100 μM for all peptides; “b” represents the percentage change in MK2 reaction velocity versus the unsubstituted peptide ([…]) [SEQ ID NO: 13] at a concentration of 100 μM; “c” represents the error reported as the standard deviation between three samples.
# PKA = details: AIP 1 μM; cited from earlier work
# PKC = details: AIP 1 μM; cited from earlier work
# CaMKIV = CaMKIV (Homo sapiens, UniProt Q16566); details: AIP 1 μM; cited from earlier work
# CaMKIV, sequence (Q16566 whole entry, species assumed): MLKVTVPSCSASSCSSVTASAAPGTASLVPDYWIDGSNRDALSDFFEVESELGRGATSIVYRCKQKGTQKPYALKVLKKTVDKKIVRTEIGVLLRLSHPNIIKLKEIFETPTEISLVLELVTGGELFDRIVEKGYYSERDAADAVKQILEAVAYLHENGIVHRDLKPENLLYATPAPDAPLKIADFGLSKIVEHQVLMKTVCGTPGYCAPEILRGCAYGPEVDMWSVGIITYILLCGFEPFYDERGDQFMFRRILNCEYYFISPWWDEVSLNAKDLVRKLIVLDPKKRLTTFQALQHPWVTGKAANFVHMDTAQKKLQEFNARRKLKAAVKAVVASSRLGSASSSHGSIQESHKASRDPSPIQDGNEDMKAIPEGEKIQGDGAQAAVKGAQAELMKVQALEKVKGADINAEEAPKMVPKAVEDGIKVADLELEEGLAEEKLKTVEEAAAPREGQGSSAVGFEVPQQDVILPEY
# [5] = tested on: Ca2+/calmodulin-dependent protein kinase II (CaMKII); details: cited from earlier work
# [6] = 100 μM peptide, percentage change in MK2 reaction velocity versus unsubstituted KALNRQLGVAA at 100 μM, SD of three samples
Compound,percent change in MK2 reaction velocity versus unsubstituted peptide (MK2 [4]; [6]),further results
CC(=O)c1c(O)c(C)c(O)c(Cc2c(O)c3c(c(C(=O)/C=C/c4ccccc4)c2O)OC(C)(C)C=C3)c1O [Rottlerin],–,"level of expression of IL-6 induced by TNF-α (FIG. 8) ([1]; TNF-α 1 ng/ml): ineffective; level of expression of IL-6 induced by TNF-α (FIG. 9) ([1]; TNF-α 10 ng/ml, initially, from 6-12 hours): minimal reduction; IC50 (MK2 [2]): 5000 nM; IL-1β induced IL-6 expression (FIG. 7) [3]: significantly reduced; time at which significant reduction of IL-1β induced IL-6 expression occurs [3]: 12 h"
"KAANRQLGVAA [therapeutic domain, alanine substitution]",+52(6) %,–
"KALARQLGVAA [therapeutic domain, alanine substitution]",−61(2) %,–
"KALNAQLGVAA [therapeutic domain, alanine substitution]",+258(14) %,–
"KALNRQAGVAA [therapeutic domain, alanine substitution]",+18(7) %,–
"KALNRQLAVAA [therapeutic domain, alanine substitution]",−28(5) %,–
"KALNRQLGAAA [therapeutic domain, alanine substitution]",+273(22) %,–
KALNRQLGVA [therapeutic domain without C-terminal Ala],0(5) %,–
KALNRQLGVAA [unsubstituted therapeutic domain peptide],+258(26) %,inhibition of MK2 activity (MK2 [4]; 100 μM peptide): 73%
"KALNRQLGdVAA (KALNRQLG[dV]AA) [therapeutic domain, D-amino acid substitution]",+160(23) %,–
"KALNRQdLGVAA (KALNRQ[dL]GVAA-NH2) [therapeutic domain, D-amino acid substitution]",+257(17) %,–
"KALNRdQLGVAA (KALNR[dQ]LGVAA-NH2) [therapeutic domain, D-amino acid substitution]",+176(5) %,–
"KALNdRQLGVAA (KALN[dR]QLGVAA-NH2) [therapeutic domain, D-amino acid substitution]",+206(7) %,–
"KALdNRQLGVAA (KAL[dN]RQLGVAA-NH2) [therapeutic domain, D-amino acid substitution]",−5(10) %,–
"KAdLNRQLGVAA (KA[dL]NRQLGVAA-NH2) [therapeutic domain, D-amino acid substitution]",46(7) %,–
"KKALRRQEAVDAL [AIP, autocamtide-2 related inhibitory peptide]",–,PKA activity (PKA): not affected; PKC activity (PKC): not affected; CaMKIV activity (CaMKIV): not affected; CaMKII activity ([5]; AIP 1 μM): inhibited completely; IC50 [5]: 100 nM
KKKALNRQLGVAA [therapeutic domain with two additional N-terminal Lys],−9(8) %,–
WLRRIKA [cell penetrating peptide domain (non-functional)],–,% of KALNRQLGVAA [SEQ ID NO: 13] Reaction Velocity (+VoSD) (MK2 [4]; [6]): 306%
WLRRIKAWLRRIKA [protein transduction domain peptide],−83(4) %,MK2 inhibition (in words) (MK2 [4]): potently inhibited
"YARAAARQARA [synthetic protein transduction domain peptide PTD-4, reference compound]",+149(13) %,MK2 inhibition (in words) (MK2 [4]): least affected
"YGRKKRRQRRR [protein transduction domain peptide, reference compound]",+44(17) %,inhibition of MK2 activity (MK2 [4]; 25 μM peptide): 48%; inhibition of MK2 activity (MK2 [4]; 100 μM peptide): 61%
